Experimental data reported in paper PMC8557468, “Evolution-Based Protein Engineering for Antifungal Peptide Improvement” (Molecular Biology and Evolution, 2021).
Positions of bridges follow the written chain, without caps; N, C: chain ends. No end group written: not given here.

Legend:
mouse erythrocytes = experiment: Hemolytic assay; assay type: cell-based; conditions: 50 μM peptide, 37 °C, 15 min, absorbance 570 nm; n = 3
Description: Hemolysis of mouse erythrocytes by peptides was assayed according to the standard method ([Gao et al. 2009]). In brief, the cells were incubated with various concentrations of peptides (6.25, 12.5, 25, or 50 μM) at 37 °C for 15 min. Absorbance was measured at 570 nm with the SpectraMax i3x Multi-Mode microplate reader (Molecular Devices). The percentage of hemolysis was determined as (Apep−Ablank)/(Atot−Ablank)×100. Ablank and Apep were evaluated in the absence or presence of peptides and 100% hemolysis (Atot) was obtained in the presence of 1% Triton X-100. Meucin-18 ([Gao et al. 2009]) was used positive control.

[1] = n = 3
Description: To assess serum stability, peptides were incubated in fresh mouse serum for 0, 12, and 24 h at 37 °C, respectively. Residual activities were measured by inhibition zone assays against C. albicans B16. For thermal stability assay, E15K was incubated at 50 °C for 1–5 days, 80 °C or 100 °C for 5 min. CD analysis and inhibition zone assay were used to evaluate a potential impact of heating on the structure and function of the peptide.

For “DVKSGHYKGPCYHDKNCNGVCRDEGYKSGHCSRWGGACWCDT (disulfide 11-31, 17-38, 21-40) [E15K]”, the “hemolysis on mouse erythrocytes” value (mouse erythrocytes) was “no detectable hemolysis”, the “serum stability (residual antifungal activity)” value ([1]; fresh mouse serum, 37 °C, 0, 12 and 24 h, residual activity by inhibition zone against C. albicans B16, 1.0 nmol) was “retained its complete antifungal activity” and the “thermal stability (activity and structure after heating)” value ([1]; in water at 50 °C for 1–5 days or 80–100 °C for 5 min, CD spectra and inhibition zone assay) was “its activity and structure were not obviously changed”.
